Laboratory results: patent US20160194399A1

Legend:
[1] = biological target: SP34-binding peptide 15253; assay: flow cytometry on peptide-displaying E. coli, 10 nM SP34-dylight-488 with 100 nM isotype control, normalised to peptide expression (yPet-Mona)
[2] = biological target: SP34-binding peptide 15253; assay: flow cytometry on peptide-displaying E. coli, 1 nM SP34-dylight-488 with 100 nM isotype control, normalised to peptide expression (yPet-Mona)
[3] = biological target: SP34-binding peptide 15253; assay: flow cytometry on peptide-displaying E. coli, 1 nM SP34-dylight-488 with 100 nM free human CD3ε as competitor, normalised to peptide expression (yPet-Mona)
[4] = biological target: SP34-binding peptide 15253; assay: flow cytometry on peptide-displaying E. coli, 100 nM SP34-dylight-488 with 100 nM isotype control, normalised to peptide expression (yPet-Mona)
[5] = biological target: SP34-binding peptide 15253; assay: flow cytometry on peptide-displaying E. coli, 0.1 nM SP34-dylight-488 with 100 nM isotype control, normalised to peptide expression (yPet-Mona)

expression normalized binding [1]: 0.98 | expression normalized binding [2]: 0.68 | expression normalized binding [3]: 0.53 | expression normalized binding [4]: 2.53 | expression normalized binding [5]: 0.55
B1: Anti-CD3ε antibody SP34 (antibody, V domains shown)
VH: EVQLVESGGGLVQPKGSLKLSCAASGFTFNTYAMNWVRQAPGKGLEWVARIRSKYNNYATYYADSVKDRFTISRDDSQSILYLQMNNLKTEDTAMYYCVRHGNFGNSYVSWFAYWGQGTLVTVSA
VL: QAVVTQESALTTSPGETVTLTCRSSTGAVTTSNYANWVQEKPDHLFTGLIGGTNKRAPGVPARFSGSLIGDKAALTITGAQTEDEAIYFCALWYSNLWVFGGGTKLTVL
